B1: Hammerhead Ribozyme (parent)
chain: ACCGGAUGUGCUUUCCGGUCUGAUGAGUCCGUGAGGACGAAACAG

This data set covers variants of B1. Briefly: self-cleavage, relative activity (ratio to wild type); higher = more cleavage; co-transcriptional.
Take G39A A41C: the self-cleavage came to 0.341.
As for G39A A41U, the figure is 0.293; as for G39A A41G, 0.383; as for A37G A44G, 0.74.
As to A37G A44C, the self-cleavage came to 0.313.
In the case of A37G A44U it was 0.595; in that of A37G A40G, 0.274.
In the case of A37G A40C it was 0.407.
For A37G A40U, the self-cleavage is 0.399.
Regarding G39A A42U, the self-cleavage was 0.348.
Regarding G39A A42C, the self-cleavage was found to be 0.369.
In the case of G39A A42G it was 0.319; in that of C38U A41C, 0.32; in that of C38U A41U, 0.453.
In the case of C38U A41G it was 0.352; in that of A37C A40C, 0.285.
As for A37C A40G, the self-cleavage is 0.354.
In the case of A37C A40U it was 0.268; in that of C38G G45U, 0.562.
In the case of C38G G45A, the self-cleavage was 0.461.
On to C38G G45C, for which the self-cleavage was determined as 0.491.
Regarding A40U C43U, the self-cleavage turned out to be 0.336.
Regarding A40U C43A, the self-cleavage is 0.344.
In the case of A40U C43G it was 0.287; in that of G39C A42U, 0.39; in that of G39C A42G, 0.279.
As for G39C A42C, the figure is 0.355; as for A37U A41C, 0.34; as for A37U A41G, 0.406.
In the case of A37U A41U it was 0.307; in that of A40G C43U, 0.268.
On to A40G C43G, for which the self-cleavage came to 0.358.
Regarding A40G C43A, the self-cleavage stood at 0.339.
Take A41U G45U: the self-cleavage turned out to be 0.359.
Regarding A41U G45C, the self-cleavage turned out to be 0.392.
In the case of A41U G45A it was 0.401.
As for C43A G45U, the self-cleavage stood at 0.68.
For C43A G45A, the self-cleavage turned out to be 0.515.
In the case of C43A G45C it was 0.441; in that of C38G G39U, 0.402.
For the variant C38G G39C, the self-cleavage turned out to be 0.326.
As to C38G G39A, the self-cleavage was determined as 0.285.
In the case of A37U A42U it was 0.327; in that of A37U A42C, 0.304.
In the case of A37U A42G it was 0.271; in that of A42G C43U, 0.326; in that of A42G C43A, 0.309.
Consider A42G C43G, for which the self-cleavage amounted to 0.308.
On to A40U A41C, for which the self-cleavage came to 0.275.
As for A40U A41G, the figure is 0.27.
For the variant A40U A41U, the self-cleavage was determined as 0.439.
In the case of A37U it was 0.799; in that of A37G, 0.886.
In the case of A37C it was 1; in that of A37C A44C, 0.28.
Take A37C A44G: the self-cleavage was 0.77.
In the case of A37C A44U it was 0.368.
In the case of A37U C38U it was 0.714.
As for A37U C38A, the figure is 0.693; as for A37U C38G, 0.384; as for G39C G45A, 0.359.
Consider G39C G45C, for which the self-cleavage came to 0.368.
On to G39C G45U, for which the self-cleavage was found to be 0.328.
As for A37C C43U, the figure is 0.392; as for A37C C43G, 0.28.
In the case of A37C C43A, the self-cleavage stood at 0.301.
In the case of A41U A42G it was 0.35; in that of A41U A42C, 0.271.
A41U A42U: the self-cleavage was found to be 0.244.
Turning to C43A A44U, the self-cleavage was 0.391.
As for C43A A44C, the self-cleavage was 0.474.
Turning to C43A A44G, the self-cleavage came to 0.304.
In the case of C38A A44G it was 0.862; in that of C38A A44U, 0.396; in that of C38A A44C, 0.405.
As for G39A G45C, the figure is 0.421.
Consider G39A G45A, for which the self-cleavage was 0.371.
In the case of G39A G45U it was 0.372; in that of G36U C38G, 0.331.
As for G36U C38U, the figure is 0.674; as for A40G A42G, 0.312; as for A40G A42U, 0.253.
Turning to A40G A42C, the self-cleavage is 0.266.
On to G39C C43G, for which the self-cleavage stood at 0.384.
In the case of G39C C43U it was 0.368; in that of G39C C43A, 0.336.
Turning to G39C, the self-cleavage worked out at 0.455.
For G39U, the self-cleavage amounted to 0.363.
As for G39A, the figure is 0.347; as for A40G A44C, 0.304.
As for A40G A44U, the figure is 0.254.
Consider A40G A44G, for which the self-cleavage worked out at 0.571.
As for A41U, the figure is 0.393; as for A41G, 0.345; as for A41C, 0.376.
In the case of C38A A42C it was 0.326; in that of C38A A42G, 0.263.
In the case of C38A A42U it was 0.283; in that of A40C A44C, 0.396; in that of A40C A44G, 0.69.
As to A40C A44U, the self-cleavage worked out at 0.347.
In the case of A41C G45A it was 0.39; in that of A41C G45C, 0.336.
In the case of A41C G45U it was 0.41; in that of C38U G39C, 0.584.
As for C38U G39A, the figure is 0.363; as for C38U G39U, 0.3; as for A37C A42C, 0.241.
With A37C A42G, the self-cleavage is 0.235.
On to A37C A42U, for which the self-cleavage worked out at 0.27.
As for A42C A44G, the figure is 1.06; as for A42C A44U, 0.351.
As for A42C A44C, the figure is 0.262.
As for A37U A40U, the figure is 0.303; as for A37U A40G, 0.284; as for A37U A40C, 0.472.
G39A A40C: the self-cleavage stood at 0.387.
In the case of G39A A40G it was 0.383; in that of G39A A40U, 0.291.
As for G36U G39A, the self-cleavage amounted to 0.352.
As for G36U G39U, the figure is 0.333.
For G36U G39C, the self-cleavage is 0.34.
In the case of A42G A44U it was 0.233; in that of A42G A44G, 0.544; in that of A42G A44C, 0.484.
Consider A37U G45C, for which the self-cleavage was found to be 0.363.
Turning to A37U G45A, the self-cleavage worked out at 0.468.
Take A37U G45U: the self-cleavage was found to be 0.48.
As for A37G G45U, the figure is 0.567; as for A37G G45A, 0.486; as for A37G G45C, 0.416.
As for A41C A44U, the figure is 0.3; as for A41C A44C, 0.436; as for A41C A44G, 0.594.
As to A42C C43U, the self-cleavage was 0.38.
Take A42C C43A: the self-cleavage worked out at 0.368.
In the case of A42C C43G it was 0.271; in that of G39A C43A, 0.284.
As to G39A C43U, the self-cleavage came out at 0.341.
As for G39A C43G, the self-cleavage came to 0.264.
With A41C A42G, the self-cleavage was 0.276.
As to A41C A42C, the self-cleavage stood at 0.375.
In the case of A41C A42U it was 0.235; in that of A40U A42G, 0.261; in that of A40U A42C, 0.369.
As to A40U A42U, the self-cleavage was 0.367.
As for C38U G45U, the self-cleavage is 0.593.
Consider C38U G45C, for which the self-cleavage was 0.529.
In the case of C38U G45A it was 0.689; in that of C38U A44U, 0.648; in that of C38U A44G, 1.44.
Take C38U A44C: the self-cleavage stood at 0.596.
In the case of C38A G39C it was 0.4; in that of C38A G39A, 0.325; in that of C38A G39U, 0.315.
In the case of C38A C43G it was 0.382; in that of C38A C43U, 0.462; in that of C38A C43A, 0.335.
As for C38A G45A, the self-cleavage was 0.464.
As for C38A G45U, the figure is 0.461; as for C38A G45C, 0.344.
As for C38G, the figure is 0.767; as for C38A, 0.833; as for C38U, 0.974.
Consider A41C C43A, for which the self-cleavage worked out at 0.361.
In the case of A41C C43G it was 0.408; in that of A41C C43U, 0.316.

Values taken from the RNAGym collection of RNA variant scans (doi:10.7554/elife.80360).
